Patent US20150147384A1, “Sustained Delivery of Molecules Using Peptide Surfactants and Uses Thereof” (Massachusetts Institute of Technology, priority 2012, published 2015)
Where “and” joins values, the source holds several entries; their conditions need not be identical. Equal entries are not always repeated. Entries after “also recorded” stand apart in the source; their conditions may differ. No end group written: not given here.

Experiments:
[1] = target: P-glycoprotein (Homo sapiens, UniProt P08183); assay: Transepithelial transport of Rhodamine-123 (basolateral to apical); conditions: control additions: 100 uM Verapamil or 1% SDS
Chain of P-glycoprotein (P08183 whole entry): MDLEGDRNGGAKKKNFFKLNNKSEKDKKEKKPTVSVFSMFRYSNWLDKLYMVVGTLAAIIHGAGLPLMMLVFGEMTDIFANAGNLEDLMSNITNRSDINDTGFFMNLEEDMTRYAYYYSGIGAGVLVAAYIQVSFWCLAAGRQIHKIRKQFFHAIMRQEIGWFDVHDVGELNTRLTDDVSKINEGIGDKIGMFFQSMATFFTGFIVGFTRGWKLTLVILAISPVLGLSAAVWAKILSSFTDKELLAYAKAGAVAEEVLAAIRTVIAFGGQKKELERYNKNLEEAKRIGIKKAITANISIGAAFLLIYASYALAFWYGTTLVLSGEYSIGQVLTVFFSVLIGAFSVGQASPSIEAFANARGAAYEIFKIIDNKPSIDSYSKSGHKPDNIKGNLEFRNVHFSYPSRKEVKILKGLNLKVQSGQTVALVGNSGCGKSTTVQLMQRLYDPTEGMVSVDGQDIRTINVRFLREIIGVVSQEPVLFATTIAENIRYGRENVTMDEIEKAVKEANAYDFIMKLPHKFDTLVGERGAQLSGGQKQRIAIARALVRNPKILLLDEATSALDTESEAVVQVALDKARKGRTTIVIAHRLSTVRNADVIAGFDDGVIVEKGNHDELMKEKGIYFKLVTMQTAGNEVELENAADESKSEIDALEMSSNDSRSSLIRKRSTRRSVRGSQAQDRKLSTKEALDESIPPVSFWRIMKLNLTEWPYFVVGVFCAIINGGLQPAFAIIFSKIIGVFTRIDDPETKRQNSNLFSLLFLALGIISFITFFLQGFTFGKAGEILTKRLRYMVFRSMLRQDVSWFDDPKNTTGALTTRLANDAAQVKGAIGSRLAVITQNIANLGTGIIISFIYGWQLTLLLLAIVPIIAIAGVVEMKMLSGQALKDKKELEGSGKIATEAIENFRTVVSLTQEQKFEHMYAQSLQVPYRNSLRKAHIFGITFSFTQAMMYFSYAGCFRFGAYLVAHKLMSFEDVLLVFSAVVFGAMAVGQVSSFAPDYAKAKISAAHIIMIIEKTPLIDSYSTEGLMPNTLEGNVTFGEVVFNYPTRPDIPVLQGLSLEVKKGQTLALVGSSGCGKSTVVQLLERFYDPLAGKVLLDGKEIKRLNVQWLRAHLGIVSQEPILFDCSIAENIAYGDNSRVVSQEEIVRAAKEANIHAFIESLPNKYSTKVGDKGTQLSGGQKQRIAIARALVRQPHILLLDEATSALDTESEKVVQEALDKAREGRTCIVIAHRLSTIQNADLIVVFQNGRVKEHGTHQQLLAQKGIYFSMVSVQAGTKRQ
Method: C18 150 mm×46 mm, 3.5 um analytical column, flow rate 0.85 ml/min, detector was set at 500 nm) [15]. The mobile phase, which consisted of acetonitrile, 20 mM sodium acetate buffer pH 4.0, and water containing 1.5 mM. […] Before the end of the experiment, the transepithelial resistance was measured to ensure that the cell monolayer integrity had not been affected by the experimental conditions.

[2] = Release of carboxyfluorescein (CF) through peptide vesicles; format: physicochemical; conditions: for CF retention / release (in words): PBS pH 7.4
Method: To determine whether the peptide vesicles can be used for drug delivery we measured the release kinetics of the hydrophilic fluorescent probe 5,6-carboxyfluorescein (CF) through the peptide bilayer assemblies. The peptide powder was added into the CF solution in PBS and the suspension was probe-sonicated for 10 min followed by equilibration for 1 hour. Encapsulated CF is strongly quenched and therefore, only the released CF contributes to the fluorescence intensity signal. Released CF was removed by centrifugation at 11,000 rpm for 25 min using Microcon YM-10 membrane tubes (10 kDa cut-off). Then the vesicles were re-suspended in PBS and incubated for 1 hour at 20° C. The newly released CF during incubation was collected by centrifugation through the Microcon membrane and the fluorescence intensity was measured. This process was repeated every 1 hour and a graph was created to show the release kinetics of CF as a function of time.

[3] = Microelectrophoretic mobility (ζ-potential) measurements; format: physicochemical; conditions: PBS pH 7.4, 20 mg/mL peptide
Method: To determine the ζ-potential of the peptide nanovesicle formulations we used a Nano ZetaSizer (Malvern Instrument, UK) equipped with an avalanche photodiode as detector and a 4 mW He—Ne laser operated at 633 nm. Data were acquired by laser Doppler velocimetry and phase analysis light scattering (PALS). The self-assembling peptides were dispersed in PBS at a concentration of 20 mg/mL, which is above their CMC, and equilibrated for 30 min at 25° C. prior to detection. Microelectrophoretic data were obtained using the Henry-Smoluchowski equation.

[4] = tested on: Caco-2 cell monolayers; assay: FITC-dextran 4.4 kDa permeability through Caco-2 monolayer; conditions: for Enhancement ratio (FITC-dextran): R=Papp(peptide)/Papp(control); for enhancement of FITC-dextran transport compared with the control: 1.0 mgmt peptide; for Papp of FITC-dextran 4.4 kDa: apical to basolateral
Method: Caco-2 cells were seeded at a density of 2×10^5 cells/cm^2 on 24-well 6.5 mm Transwell polyester membrane inserts (0.4 um pore size, Corning Costar, Cambridge, Mass.). The medium was changed every 2-3 days in both sides of the Transwell membrane. After 20 days the growth medium was replaced with 10 mM HBSS/HEPES buffer pH 7.4 and studies of the cell-monolayer integrity and permeability were performed.
For the permeability assay, we added in the apical side of the Transwell 1 mg/mL FITC-dextran MW 4.4 kDa (Sigma) in 10 mM HBSS/HEPES buffer pH 7.4 with and without 0.2 or 1.0 mg/mL of self-assembling peptides. At each time point, samples were withdrawn from the basorateral side and the amount of FITC-dextran was measured using a fluorescence 96-well plate reader. The excitation and emission wavelengths were 490 nm and 530 nm, respectively. Results were expressed as cumulative transepithelial transport of FITC-dextran as a function of time. All measurements were done in triplicates and expressed as mean±S.D. The apparent permeability coefficient was calculated according to Papp=(dQ/dt)/(dt)/(ACo) in cm/s, where dQ, is the cumulative amount of FITC-dextran in the basolateral side at time t, (dQ/dt) in pmol/s is the permeability rate, Co is the initial concentration of FITC-dextran in the apical side and A is the area of the monolayer. The enhancement ratio R equals to R=(Papp(peptide)/Papp(control)).

[5] = Particle size determination by DLS; format: physicochemical; conditions: PBS pH 7.4, 25° C.
Method: Prior to measuring particle sizes by DLS, the peptide vesicle formulations in PBS were filtered through 0.4 um filter to remove vesicle aggregates. Normalized intensity-time correlation functions g^(2) (q,t)=I(q,t)I(q,0))/I(q,01))^2 were measured over a broad time scale (from 10^−7 s to 10^4 s) using a full multiple tau digital correlator (ALV-5000FAST) with 280 channels spaced quasi-logarithmically. The scattering wavevector q=4πn sin(θ/2)/λo depends on the scattering angle θ (herein we used 0=90°), the laser wavelength λo, and the refractive index of the medium n, We used the 671 nm line from a diode pumped solid state laser which operated at a power of less than 5 mW. The scattered light was collected by a single-mode optical fiber (coherence factor ˜0.95), transferred to an avalanche photo-detector and then to the digital correlator for analysis. Accumulation times were of the order of few seconds due to the strong scattered intensity from the dispersions. To check the reproducibility of the results, several time correlation functions were recorded for each peptide vesicle system dilute suspensions the normalized electric-field time auto-correlation function g^(1)=(E(q,t)E*(q,0))/(E(q,0))^2 is related to the experimentally recorded intensity autocorrelation function g^(2) (q,t)^2 through the Siegert relation g^(2) (q, t)=B[1+f*|g(1)(q,t)|^2 where B describes the long delay time behavior of g^(2) (q, t) and f* represents an instrumental factor obtained experimentally from measurements of a dilute polystyrene/toluene solution. In our case, the optical fiber collection results in f*˜0.95. The electric-field time correlation function g^(1)(t) (for simplicity we drop the q-dependence) was analyzed as a weighted sum of independent exponential contributions, i.e., g^(1)∫L(τ)exp(−t/τ)dτ=∫L(ln τ)exp(−t/τ)d in τ. The distribution of relaxation times L(lnr)=τL(τ) was obtained by inverse Laplace transformation of g<′>(q,t) using the CONTIN algorithm.
The apparent hydrodynamic radii of the suspended particles were determined using the Stokes-Einstein relation Rh=kBT/6πηD, where kB is the Boltzmann constant, η is the viscosity of the solvent, and D the diffusion coefficient of the particle. The latter is determined by D=1/t q^2. where τ is the relaxation time of g(^1) (q,t).

[6] = AFM imaging of peptide nanovesicles on mica; format: physicochemical; conditions: for Vesicle diameter, AFM analysis: individual nanovesicles; for Vesicle diameter, AFM analysis / Beads diameter, AFM analysis (necklace-like formations): dry state on mica; for number of nanovesicles per necklace: AFM image analysis; for Clusters diameter, AFM analysis: nanovesicle clusters, dry state
Method: For the AFM experiments, 3 uL were removed from the peptide vesicle dispersions (20 mg/mL of peptides in PBS that has been filtered through 0.2 um filters) and deposited on a freshly cleaved mica surface (G250-2 mica sheets 2.5×2.5×0.015 cm; Agar Scientific Ltd, Essex, UK). The bare surface of mica is smooth (rms is about 0.4 nm). Before imaging, each sample was left on mica for 1 min, rinsed with 200 uL of water (Millipore), and dried in a nitrogen gas stream. Images were obtained immediately in air using a Veeco MultiMode NanoScope 3D Controller Scanning Probe Microscope (Digital Instruments, Santa Barbara, Calif.) operated in tapping mode. AFM imaging (512×512 pixels) was performed using soft silicon probes (FESP; nominal length lnom=225 um, width wnom=28 um, tip radius Rnom=8 nm, resonant frequency νnom=75 kHz, spring constant knom=2.8 N m^−1; Veeco Instruments SAS, Dourdan, France). Typical scanning parameters were tapping frequency 73 kHz, integral and proportional gains 0.2 and 0.4, respectively, set point 0.7-1.0 V, and scanning speed 1.0-1.5 Hz. The Nanoscope image processing software was used to obtain height patterns, cross sections, and MIS of the peptide nanovesicles. Images were collected from two different samples at random spot surface sampling (at least five areas).

[7] = Hydrophobic drug uptake and release (Nile red); format: physicochemical; conditions: for Nile red emission maxima: Nile red in peptide nanovesicles; for release kinetics of Nile red through peptide nanovesicles (in words): PBS pH 7.4, 20° C.; for retention of Nile red molecules (in words): compared to KA6-CONH2 and DA6-COOH vesicles
Method: The hydrophobic fluorescent probe Nile red was used as a probe molecule to study the peptide nanovesicle bilayer. […] The “thin film” method was used for the preparation of the dispersions. Briefly, 0.2 mg of the amphiphilic peptide was dissolved in ethanol and subsequently the organic solvent was removed under vacuum in a rotary evaporator. Then the produced thin film was rehydrated with 1 mL of PBS, pH 7.4 containing 3.14 uM Nile red. Prior to analysis the dispersions were bath sonicated for 30 minutes. All spectra were recorded at room temperature with excitation and emission slit widths set at 5 nm (RF-5301 PC Shimatzu spectrophotometer). The excitation wavelength was at 546 nm and the emission spectra were recorded from 550 to 700 nm.

[8] = Critical micelle concentration (CMC) by Dynamic Light Scattering; format: physicochemical
Method: The CMC of the amphiphilic peptides was determined by Dynamic Light Scattering (DLS) experiments (PDDLS/Batch setup, Precision Detectors, Franklin, Mass.). Solutions of different peptide concentrations were prepared in PBS and were filtered through 0.4 urn pore size filters prior to measuring. Scattered light was detected at 90° and the number of photons reaching the avalanche photodiode was recorded. The solvent viscosity and the refractive index of the buffer were taken as 0.894 cP and 1.33, respectively, at […]. Data were acquired in triplicates and processed by the Precision Deconvolve program, […]

[9] = tested on: Caco-2 cells
Method: Caco-2 cells (passage 40) were grown at 37° C. in tissue culture flasks with Dubelco's Modified Essential Medium (DMEM) supplemented with 10% v/v FBS (Fetal Bovine Serum) 1% nonessential amino acids and 100 ug/mL penicillin and streptomycin in humidified atmosphere containing 5% v/v CO2. The medium was changed every 2-3 days until cells reach 80% confluence and then were subcultured by trypsinization.
The effect of self-assembling peptides on cell viability and cell proliferation was investigated using the MTT colorimetric assay (Sigma). Caco-2 cells were cultured into the wells of 96-well plates using growth medium until a density of 4×10^3 cells/cm^2 was reached. Then we replaced the growth medium with fresh growth medium containing 0.2 or 1.0 mg/mL self-assembling peptides and the cells were incubated for 3, 24 and 48 h at 37° C. Then 10 uL of MTT reagent was added in each of the wells and the plates were incubated for 3 hat 37° C. Then 100 uL of the detergent solution was added and the plates were stored in the dark for 3 h to dissolve the formazan product. The optical density was measured at 600 nm in a Teknika® ELISA Plate spectrophotometer.

Molecule | ζ-potential [3] [mV] | Enhancement ratio (FITC-dextran) ([4]; 0.2 mg/ml peptide) | Enhancement ratio (FITC-dextran) ([4]; 1.0 mg/ml peptide) | enhancement of FITC-dextran transport compared with the control [4] [fold] | Vesicle diameter, DLS analysis [5] | Vesicle diameter, AFM analysis [6] [nm] | Nile red emission maxima ([7]; PBS pH 7.4) [nm] | CMC in PBS [8] [mg/mL] | CF retention / release (in words) [2] | Papp of FITC-dextran 4.4 kDa ([4]; 0.2 mg/ml peptide) | Papp of FITC-dextran 4.4 kDa ([4]; 1.0 mg/ml peptide) | release kinetics of Nile red through peptide nanovesicles (in words) [7] | retention of Nile red molecules (in words) [7] | Caco-2 cell viability [9] | number of nanovesicles per necklace [6] | Beads diameter, AFM analysis (necklace-like formations) [6] [nm] | Clusters diameter, AFM analysis [6] [nm] | further results
CCCCCCCCCCCCOS(=O)(=O)[O-].[Na+] [SDS 1%] | – | – | – | – | – | – | – | – | – | – | – | – | – | – | – | – | – | Enhancement ratio (Rhodamine-123) [1]: 3.0; Papp of Rhodamine-123 ([1]; basolateral to apical): 3.28 ± 0.02 10^-5 cm/s
KAAAAAA-NH2 [KA6-CONH2] | 12.4±0.9 | 4.0 | 5.1 | 5.1 | 164 (65-350) nm | 169 ± 29 | 623 | 0.07 | – | – | – | – | – | – | – | – | – | CF retention / release (in words) ([2]; listed as KA6-CONH): did not retain CF; average diameter of second DLS peak (probably aggregates of individual vesicles) [5]: 906 nm
acetyl-AAAAAAK-CONH2 (Ac-AAAAAAK-NH2) [Ac-A6K-CONH2] | 8.5±0.3 | 4.4 | 5.7 | 5.7 | 122 (30-173) nm | 126 ± 23 | 631 | 0.16 | significantly retained the negatively charged CF | 1.20 ± 0.36 10^-5 cm/s | 1.51 ± 0.37 10^-5 cm/s | release was slower | retain higher numbers of Nile red molecules | exceeding 100% | – | – | – | CF release through peptide nanovesicles ([2]; after 7 h, PBS pH 7.4, 20° C.): approximately 50%; Vesicle diameter, DLS analysis ([5]; listed as ac-A6K-CONH2): 122 nm; Vesicle diameter, AFM analysis ([6]; listed as ac-A6K-CONH2): ~126 nm; Nile red fluorescence yield compared to other peptide nanovesicle systems ([7]; PBS pH 7.4): significantly higher
DAAAAAA-OH [DA6-COOH] | −14.0±1.1 | 5.0 | 6.6 | 6.6 | 137 (64-725) nm | 43 ± 11 | 647 | 0.12 | Fast CF release; also recorded: did not retain CF | – | – | – | – | – | 11±2 and 11 | 159±26 | 135±24 | Vesicle diameter, AFM analysis ([6]; listed as DA6-COON): 43±11 nm
acetyl-AAAAAAD-COOH (Ac-AAAAAAD-OH) [Ac-A6D-COOH] | −15.4±1.1 | 6.7 | 7.9 | 7.9 | 97 (30-320) nm | 28 ± 9 | 626 | 0.05 | only a small CF retention efficiency | 1.82 ± 0.24 10^-5 cm/s | 2.13 ± 0.16 10^-5 cm/s | release was slower | to a lesser extent | exceeding 100% | 23±3 and 23 | 200 ± 11 | 101 ± 11 | initially loaded CF retained by vesicles ([2]; after 7 h, PBS pH 7.4, 20° C.): 13%; Vesicle diameter, DLS analysis ([5]; listed as ac-A6D-COOH): 97 nm; Beads diameter, AFM analysis (necklace-like formations) ([6]; listed as ac-A6D-COOH): 200±11 nm; Vesicle diameter, AFM analysis ([6]; listed as ac-A6D-COOH): 28±9 nm and ~43 nm; Clusters diameter, AFM analysis ([6]; listed as ac-A6D-COOH): 101±11 nm
